Results reported in the DeepSol protein solubility set.

Experiment: soluble on expression in E. coli; label from the status in PepcDB or PDB records

Sequence | soluble on expression in E. coli
MYETYHSGWIETITGSMFSGKSEELIRRLRRGIYAKQKVVVFKPAIDDRYHKEKVVSHNGNEIEAINISTAQEILNHKLEEVNVIGIDEVQFFEDDIVNIVEKLAENGHRVIVAGLDMDFRGEPFKPMPKLLAVSEHITKLQAVCSVCGSPSSRTQRLINGEPAKVDDPIILVGANESYEPRCRAHHIVAPSENEKEEMLEHHHHHH | not soluble
MYFVDRKKLEETLSYMEQMLDRYKAEERWDEPLRQLALERIAHIVIEAVLDVGNAMIDGFIMRDPGSYNDIIDILADEQVISPADADRLKAFIAHRKMLVHEYARVDHAKLLADLNEHLPALEAYPKAVRAYLENELGPVSAFRN | soluble
MYHHGFHYYSTNNSHSYSRTRNPPKSWNLGPHELGSSTDPENRAMQESIINSVSEQTLQSWIDFREEINKKNLLLRNKLKIPSEKIDDKYHTFPEKKQSDYADAEIYAGSDASQPSRNEYDRSKYVLNRKVRCAPTEIITDSSQSPGASPSSDQIFIDDSQPSTTKRRWVISEPDDNSDKHVSSSENHQQREKIISPTEKTLQKSTSSNSSPTLKLFVTVPSSSNQECILHKYGHCIAPQICPFAHDGVVRKLEKKTVTAPFWQRKLPNISLCPGYPTLKCWDHKCGKRHILYPSDNI | not soluble
MYIILVYDIGEKRVGKMLKLCRKYLNWIQNSVFEGEISEVKLLELKSRAAGIMEKEEDSLIIFSSRQERWLEKEIIGKERSATDIFL | not soluble
MYMNVLIISDSHGLEEELQTIAKRHEAEVDLMIHCGDSELETRHPALEPYAVVKGNCDFAGDFKDELLLTAGSRKILVTHGHLHGIKQTLLNVYYRAEELGADVICFGHSHIAGSEVLRGKLMINPGSIRLPRVRRTESYAILTLENDAATVRFYDQAGNEIEDLQNRVTLLEHHHHHH | not soluble
MYNLKNIYASITLYPHEINLVVSDNNNQFHVLYENSIANDELYTHAGITNKAKFKVVLNQLINNANDYLGFKLEKVIVVLAELVDDLEINRFKTDVFFTGYDFNHQDMLSSEKNRFLLKNRHINPNEVLDLVALNYRDLTTDKISKNFKYNCSYRANVIYYTTKNSLVKELKPFLKRNIIVKIDKIVTHHMVLAHSIKQINKNNLFVYLGEHTTDLMLFMDNALVDLVSEPFGRVNFLESDNDSENKALLEFLVDSTARIGDSGSIGMAYTDGSTYKEIRAVTIDDLIQSVNEKTKYLIDFINTNTEIFFQKYGFLPSTLLFYTKSKQLLNNFQLNQNLLSNHFKTVTIFKNEVQFVSRKYLLNCQTIALSWRQDQINVNPTSFALPFYSDKIEKQFKKSFLMLKVHTHINKLVQKLIK | soluble
MYNVMITGAGKIGSLIACLLADSGSYQVHLADLEFNGSDVTRLLTALPEIKTVALDVKDEQSTQAYLQKHNIIAVISSLPYFLNTHVAKAAKAAKAHYFDLTEDTSVTEAVKAIAQNAETAFVPQCGLAPGFISIAANSLMQEFEKCHHARLRVGALPQRANNALHYSLTWSTDG | not soluble
MYPNLFQPLDLGFTQLKNRVLMGSMHTGLEENKEGLHKLAAFYEERAKGGVGLIVTGGFSPNLRGRLHPFSAEFSKTKHAKAHKVVTEAVHRHGAKIALQLLHAGRYAMHPFSQSASAIRAPIAKFAPSEMSTRQIRNTIQDFANSAELAQLAGYDGVEVMGSEGYLINQFICKRTNMRYDEWGGSYQNRIRFPVEIVKAIREAVGKEFIIIFRLSMLDLVEQGSTFEEVVVLAKALEEAGVTIINTGIGWHEARIPTIATQVPRAAFSWVTEKIKPYLKVPVVTCNRINTPEQAEKILASGQADMVSMARPFLADADFVRKAQEGQSALINTCIGCNQACLDNVFRGKRASCLVNPRACYETEIVVKPAQSKKIAVVGAGPAGLAFATTASERGHQVDLFERNDRIGGQFRLAMQIPGKEEFRETIRYFANRIDQTGVKLHLGCEVQFSDLRGYDEVVIATGVTPRKIALAGLSESSKVVDYQTLIREKTPVGQKVAIVGAGGIGVDVASMLTEPKDQTLDDWLYEWGIDKAIEHPGGLYPYPETTSEREVWLLQRRKGAVGKGPGKTTGWIHKRTLEKRGVHLVGGVQYQKIDEQGLHIERDGKSELIDADSVVICAGQESVRPFEAQWAELGDKLHVIGGADVAGELDAARAIRQGVELAVRL | not soluble
MYQVVKMFGDWEPWWFIEGWEEDITEIAEYDTLSEALLYFQEEWDRGQEKWPYFQSKSSLLATFWSIKEKRWCEECDEYLQQYHSLMLLKEWQEIPKEESIERFEVFNKIAELPSACSLNLLEHHHHHH | soluble
MYRMDKYTIGLIRVITLEDKEILNLHGRIIESAFPELKVVSRCIEDQPKGIYNEETEREAEPKIIRLAKEFEREGVDAIIISCAADPAVEKVRKLLSIPVIGAGSSVSALALAYGRRVGVLNLTEETPKVIRSILGNNLIAEDHPSGVSNTLDLLTDWGRREVINAAKRLKEKGVEVIALGCTGMSTIGIAPVLEEEVGIPVIDPVIASGAVALHALKRREVKRFEGR | soluble
MYTPVSKSTKSNKNRSSLDKILDAKKPVNLLILGTDTGAEGRSVKNYHGLTDLMMFVTVNPSKKQTRVTTIARDSKVNLPDYPEVSPIKLNSAYSLGGVSETIKTLDKYYSVPIDGYVLVNWASTMKIITKMGGVDVISPLTFDNMGYSFKKGQMYHISGKKALAFVQLRHGDPRQDYGRQERERLVMMAAIKKSVSYKTILNSSFMQSLGDSMQTDLSLNDMIKLAMNYQGVTDNVKSDYAQGKSSSVNNLEHHHHHH | soluble
MYTYKIGISPEEHDQFVLAQPQAGLLQSSKWGKVKDNWKHERISFYENGVQVAAAACLIRKLPLGFTMIYIPRGPIMDYANFELLDFVIKTLKTFGKSKRALFIKIDPSLVIKQTLEGKESKENDVTLSIIAFLKKLGVEWSGRTKELEDTIQPRIQANIYAKDFDFDSLPKKAKQSIRTATNKGVNVTIGGSELLDDFSALMKKTENRKGIILRGKSYYQKLLGIYAGQSYITMASLDLPEQKKLLIQQLDKALAEQARLTDKSKPSKVAENQKTIARLQKDLTILSEQLATGQTRIPLAATLTLIYGETSENLYAGMDDDYRNYQAPLLTWYETAKEAFKRGCRWHNLGGVENQQDGGLYHFKARLNPTIEEFAGEFNIPVGLVSSLAILTYNLRKKLRSTTNGTN | not soluble
MYVECLSSTTPPIDVFDYLSFFVFNKKDNKYLSIQDVEVKRFSSSKTVWGLPKAMSLETFTDPAKGFIVEGEPCEFGAHVKIASSPVPVDENLPFHKFSWSIRDFSVLKQNDCISKTFAMGGKNWTLTVYPKGDSEADNEFCKYLHLADGEVLSPGEMISVRAQLRALDPRGSKHKTVWLQQWIMAATKARGIPQSLSLADLQEAYLDEDTLNVEIECEVVNSRKMF | soluble
MYYIASADSQQSQQGRSQAEAPEFLTEKCPFVGLKSTLEQVGTPR | not soluble
NADAQTKLQIIDLKTRLRLALPNLPGGDLRGVNFSADASQLVFYINSDTSPSNLYVHKLGSTGVKRLTNTGNPNILEDNLVEGEVVRFKSFDGLDIPGILYKPKQAEFNKVPALVFIHGGPGGQSRKGYSALVQHLVNNGYAIFKVNNRGSSGYGKTFFHLDDKKHGDHDLKDVVYNKYYLQSLDWVDKDRIGVIGGSYGGYLTMAAMAFTDEFQAGVNIFGVTNWVRTLESIPPYWEAFRKSLYDELGDPNTDKERLHNISPVFFGHQIKKPVLVVQGKNDPRVLKIESDEMVDSIRSGGTYVDYLVFDDEGHGFSKKANRIEASNKYLNFFKTQL | not soluble
NDKYMLLVFGRNGCSYCERFKKDLKNVKELRDYIKEHFSAYYVNISYSKEHDFKVGDKNNEKEIKMSTEELAQIYAVQSTPTIVLSDKTGKTIYELPGYMPSTQFLAVLEFIGDGKYQDTKDDEDLTKKLKAYIKYKTNLSKSKSN | not soluble
NETEATLPVFTLEQVAEHHSPDDCWMAIHGKVYDLTPYVPNHPGPAGMMLVWCGQESTEAWETKSYGEPHSSLAARLLQRYLIGTLEEIT | soluble
NGGTSKTVKFERFEDYNGPKPARAKNMVWQIIPDASTRTNALQSKSVQAIDSVPYLSIDQLKGTHTVESVQGFGLLFAMFNNDKSNPFSDLKNRQAFLYGIDMDKVIKTALLGQATAPTSFLHKEHPQYHEAKVVYSHDAEKAKALFKETGLTKLRMLCTDHDWVKKCTPLIQESLTALGIQVDFTEKKSSDVYNTIDGKPEAYDVVIAPGDPSVFGTDPDLLMRWWYSGDTWTDTRMHWKGTEAYAKLQEVLDAGLAATSESEQKNKWHEALDIISENVPLYPLLHRKAPTAWDASTLVDFKPISLTGLSFSGVGTTQ | not soluble
NKYDWFEFFLNCGVDVSNCQRYTINFDREQLTEDMMPDINNSMLRTLGLREGDIVRVMKHLDKKFGRENIAS | soluble
NLMKRCTRGFRKLGKCTTLEEEKCKTLYPRGQCTCSDSKMNTHSCDCKSC | soluble
NQKDFDRTMVIDERTELVARTITDYLKRTNPMDKTIVFCNDIDHAERMRRALVNLNPEQVKKNDKYVMKITGDDEIGKAQLDNFINPKKPYPVIATTSELMTTGVDAKTCKLVVLDQNIQSMTKFKQIIGRGTRIDERYGKLWFTILDFKKATELFADERFDGIPEKVMDTTPEDIAD | not soluble
NTDELMRAVQPRVNPKLLYVIASTLRLYPLAKARLEIIRQTHITRGIDVHSIRGRWGLVLPLVVGLVDNAAQRARPLQRTGIGHSGPRTVLRPVPVMTHDVIIQVLAVCTTIAVCIWSIF | not soluble
NVPELIGAQAHAVNVILDAETAYPNLIFSDDLKSVRLGNKWERLPDGPQRFDSCIIVLGSPSFLSGRRYWEVEVGDKTAWILGACKTSISRKGNMTLSPENGYWVVIMMKENEYQASSVPPTRLLIKEPPKRVGIFVDYRVGSISFYNVTARSHIYTFASCSFSGPLQPIFSPGTRDGGKNTAPLTICPVG | soluble
NVYDLANELERAVRALPEYQAVLTAKSAIESDADAQVLWQDFLATQSKVQEMMQSGQMPSQEEQDEMSKLGEKIESNDLLKVYFDQQQRLSVYMSDIEKIVFAPMQDL | soluble
PAKLGYWKLRGLAQPVRLFLEYLGEEYEEHLYGRDDREKWMSEKFNMGLDLPNLPYYIDDKCKLTQSVAIMRYIADKHGMLGTTPEERARISMIEGAAMDLRIGFGRVCYNPKFEEVKEEYVKELPKTLKMWSDFLGDRHYLTGSSVSHVDFMLYETLDSIRYLAPHCLDEFPKLKEFKSRIEALPKIKAYMESKRFIKWPLNGWAASFGAGDAPPS | soluble
PDEKIVRIHSSSGTTGSPVIIPYTQKDVDVWSEMMMRCYQMAGVTNNDRVHITPGYGLWTAGIGFQLGAERLGAMAIPMGPGNTEKQLQMMVDLKSTVLTSTSSYALLLAEEIRKKGIQDKIHLKIGVIGSERWSEKMRNRIESELGIKSFDIYGLTEIYGPGIALDCEYHEGMHYW | not soluble
PDGQDLAEARQRLDDSLEQAHQQHKALYERLMAYKTQPRMKTWLNELVWAHNQALWDAPTKVLAQGEPDPHLLLTTQLAPELLNTRKELMLISAYFVPGQEGLLYLTGRADAGVNVSLLTNSLEATDVPAVHGGYAPYRKALLEHGVKLYELRRQPGETETMRSSGPHLFRKSHSLVSSESSLHSKAMIFDRQKVFVGSFNFDPRSVLWNTEVGVLVDSPQLAEELRELTLQGMAPSLTYEARLEDGKVVWVTE | soluble
PGSMTVTQSQLELLIRNAFPEAEITVTSLVGDNNHYSIKVISSQFQGKSKLEQHRMIYKVLDGLNIHAIQIQTGCK | soluble
